Assay [1] deals with T1, Core_NINI-es_KEKE.
T1 chain: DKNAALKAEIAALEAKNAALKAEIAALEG
The assay is described as follows: two-hybrid library CCmax.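 Also: natural log of median RNA to DNA barcode read ratio; higher means stronger binding.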 The settings on record: mean of both orientations.

For assay [2], the target named is T2, Core_IINN-es_KEKE.
T2 chain: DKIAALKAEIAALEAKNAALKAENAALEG
Briefly: two-hybrid library CCmax.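 Also: natural log of median RNA to DNA barcode read ratio; higher means stronger binding.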 As to conditions: mean of both orientations.

For assay [3], the target named is T3, Core_IIIN-es_KEKE.
T3 chain: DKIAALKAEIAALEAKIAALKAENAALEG
The assay is described as follows: two-hybrid library CCmax.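 Also: natural log of median RNA to DNA barcode read ratio; higher means stronger binding.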

Assay [4] has as its target T4, Core_IIIN-es_KEEE.
T4 chain: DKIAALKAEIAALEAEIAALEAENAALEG
Briefly: two-hybrid library CCmax.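 Also: natural log of median RNA to DNA barcode read ratio; higher means stronger binding.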 The settings on record: mean of both orientations.

Assay [5] addresses T5, Core_IIII-es_KEEE.
T5 chain: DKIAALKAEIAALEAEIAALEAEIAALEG
The assay is described as follows: two-hybrid library CCmax.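 Also: natural log of median RNA to DNA barcode read ratio; higher means stronger binding.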 The settings on record: mean of both orientations.

Assay [6] addresses T6, Core_NINI-es_KEEE.
T6 chain: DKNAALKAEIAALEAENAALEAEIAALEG
The assay is described as follows: two-hybrid library CCmax.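 Also: natural log of median RNA to DNA barcode read ratio; higher means stronger binding.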 The settings on record: mean of both orientations.

Assay [7] deals with T7, 4H3129-bH.
T7 chain: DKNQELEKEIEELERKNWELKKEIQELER
The assay is described as follows: two-hybrid library CCNG1.

For assay [8], the target named is T8, 4H584-bH.
T8 chain: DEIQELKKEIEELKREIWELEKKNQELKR
Briefly: two-hybrid library CCNG1.

Assay [9] addresses T9, 4H3613-bH.
T9 chain: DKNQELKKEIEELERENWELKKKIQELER
The assay is described as follows: two-hybrid library CCNG1.

Assay [10] has as its target T10, 4H1393-bH.
T10 chain: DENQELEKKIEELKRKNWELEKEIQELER
The assay is described as follows: two-hybrid library CCNG1.

Assay [11] deals with T11, 4H3628-bH.
T11 chain: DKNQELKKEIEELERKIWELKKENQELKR
Briefly: two-hybrid library CCNG1.

The target in assay [12] is T12, 4H3189-bH.
T12 chain: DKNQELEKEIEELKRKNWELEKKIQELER
Briefly: two-hybrid library CCNG1.

The target in assay [13] is T13, 4H1804-bH.
T13 chain: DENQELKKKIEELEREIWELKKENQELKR
Briefly: two-hybrid library CCNG1.

Assay [14] concerns the target T14, 4H906-bH.
T14 chain: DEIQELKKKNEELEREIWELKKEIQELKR
Briefly: two-hybrid library CCNG1.

The target of assay [15] is T15, 4H1985-bH.
T15 chain: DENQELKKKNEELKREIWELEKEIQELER
The assay is described as follows: two-hybrid library CCNG1.

Assay [16] concerns the target T16, 4H3638-bH.
T16 chain: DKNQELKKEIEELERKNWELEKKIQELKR
The assay is described as follows: two-hybrid library CCNG1.

Assay [17] has as its target T17, 4H3858-bH.
T17 chain: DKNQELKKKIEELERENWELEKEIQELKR
Briefly: two-hybrid library CCNG1.

For assay [18], the target named is T18, 4H3172-bH.
T18 chain: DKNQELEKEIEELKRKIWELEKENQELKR
Briefly: two-hybrid library CCNG1.

Assay [19] addresses T19, 4H1338-bH.
T19 chain: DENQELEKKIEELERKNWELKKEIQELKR
Briefly: two-hybrid library CCNG1.

In assay [20] the target is T20, 4H1899-bH.
T20 chain: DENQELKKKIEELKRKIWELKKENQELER
The assay is described as follows: two-hybrid library CCNG1.

Assay [21] deals with T21, 4H1373-bH.
T21 chain: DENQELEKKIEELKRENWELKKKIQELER
The assay is described as follows: two-hybrid library CCNG1.

Assay [22] deals with T22, 4H1449-bH.
T22 chain: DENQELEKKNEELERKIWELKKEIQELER
The assay is described as follows: two-hybrid library CCNG1.

Assay [23] addresses T23, 4H570-bH.
T23 chain: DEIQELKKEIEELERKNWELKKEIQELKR
Briefly: two-hybrid library CCNG1.

Assay [24] concerns the target T24, 4H741-bH.
T24 chain: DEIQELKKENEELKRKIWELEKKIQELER
Briefly: two-hybrid library CCNG1.

Assay [25] has as its target T25, O8-bN.
T25 chain: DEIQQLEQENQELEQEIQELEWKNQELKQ
The assay is described as follows: two-hybrid library CCNG1.

Assay [26] concerns the target T26, P8A-bN.
T26 chain: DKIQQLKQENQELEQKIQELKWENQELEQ
The assay is described as follows: two-hybrid library CCNG1.

The target of assay [27] is T27, 4H1348-bH.
T27 chain: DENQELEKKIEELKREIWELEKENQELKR
The assay is described as follows: two-hybrid library CCNG1.

The target in assay [28] is T28, 4H3974-bH.
T28 chain: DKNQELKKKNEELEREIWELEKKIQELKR
Briefly: two-hybrid library CCNG1.

The target of assay [29] is T29, 4H619-bH.
T29 chain: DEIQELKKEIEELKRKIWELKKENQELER
Briefly: two-hybrid library CCNG1.

Assay [30] addresses T30, 4H1710-bH.
T30 chain: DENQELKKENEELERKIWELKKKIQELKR
The assay is described as follows: two-hybrid library CCNG1.

The target of assay [31] is T31, P5bH1.
T31 chain: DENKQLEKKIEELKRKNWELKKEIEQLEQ
Briefly: two-hybrid library CCNG1.

Assay [32] has as its target T32, 4H1359-bH.
T32 chain: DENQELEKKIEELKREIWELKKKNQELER
Briefly: two-hybrid library CCNG1.

Assay [33] has as its target T33, 4H3631-bH.
T33 chain: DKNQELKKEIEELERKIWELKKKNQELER
The assay is described as follows: two-hybrid library CCNG1.

In assay [34] the target is T34, 4H1544-bH.
T34 chain: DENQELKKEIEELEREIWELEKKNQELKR
The assay is described as follows: two-hybrid library CCNG1.

The target of assay [35] is T35, 4H3817-bH.
T35 chain: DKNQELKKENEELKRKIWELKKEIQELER
Briefly: two-hybrid library CCNG1.

Assay [36] deals with T36, 4H850-bH.
T36 chain: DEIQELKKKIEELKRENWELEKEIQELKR
The assay is described as follows: two-hybrid library CCNG1.

Assay [37] has as its target T37, 4H1629-bH.
T37 chain: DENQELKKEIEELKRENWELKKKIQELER
Briefly: two-hybrid library CCNG1.

Assay [38] concerns the target T38, 4H3414-bH.
T38 chain: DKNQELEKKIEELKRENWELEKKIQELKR
Briefly: two-hybrid library CCNG1.

Assay [39] addresses T39, 4H1222-bH.
T39 chain: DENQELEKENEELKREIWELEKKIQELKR
Briefly: two-hybrid library CCNG1.

Assay [40] has as its target T40, Core_INNI-es_KKKE.
T40 chain: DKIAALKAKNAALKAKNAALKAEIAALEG
The assay is described as follows: two-hybrid library CCmax. As to conditions: mean of both orientations.

The target in assay [41] is T41, O8-bS.
T41 chain: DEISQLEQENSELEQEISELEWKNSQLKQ
The assay is described as follows: two-hybrid library CCNG1.

The target in assay [42] is T42, O4-bS.
T42 chain: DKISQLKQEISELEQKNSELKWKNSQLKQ
The assay is described as follows: two-hybrid library CCNG1.

Assay [43] concerns the target T43, O11-bS.
T43 chain: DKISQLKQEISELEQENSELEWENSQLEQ
The assay is described as follows: two-hybrid library CCNG1.

The target of assay [44] is T44, O1-bS.
T44 chain: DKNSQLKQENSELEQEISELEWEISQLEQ
Briefly: two-hybrid library CCNG1.

Assay [45] deals with T45, O6-bS.
T45 chain: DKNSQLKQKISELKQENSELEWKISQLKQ
The assay is described as follows: two-hybrid library CCNG1.

Assay [46] concerns the target T46, O10-bS.
T46 chain: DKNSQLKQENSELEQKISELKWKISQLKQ
The assay is described as follows: two-hybrid library CCNG1.

In assay [47] the target is T47, O3-bS.
T47 chain: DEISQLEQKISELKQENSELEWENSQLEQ
Briefly: two-hybrid library CCNG1.

Assay [48] has as its target T48, O15-bS.
T48 chain: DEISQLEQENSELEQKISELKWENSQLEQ
Briefly: two-hybrid library CCNG1.

The target of assay [49] is T49, O16-bS.
T49 chain: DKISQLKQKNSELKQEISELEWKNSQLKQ
The assay is described as follows: two-hybrid library CCNG1.

The target of assay [50] is T50, O12-bS.
T50 chain: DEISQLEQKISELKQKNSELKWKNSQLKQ
Briefly: two-hybrid library CCNG1.

Assay [51] concerns the target T51, O13-bS.
T51 chain: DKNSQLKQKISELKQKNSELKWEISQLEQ
The assay is described as follows: two-hybrid library CCNG1.

The target of assay [52] is T52, O9-bS.
T52 chain: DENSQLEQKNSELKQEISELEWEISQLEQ
The assay is described as follows: two-hybrid library CCNG1.

Assay [53] concerns the target T53, O5-bS.
T53 chain: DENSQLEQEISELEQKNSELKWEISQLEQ
Briefly: two-hybrid library CCNG1.

Assay [54] addresses T54, O7-bS.
T54 chain: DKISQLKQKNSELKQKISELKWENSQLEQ
The assay is described as follows: two-hybrid library CCNG1.

For assay [55], the target named is T55, O2-bS.
T55 chain: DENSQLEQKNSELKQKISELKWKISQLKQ
Briefly: two-hybrid library CCNG1.

Assay [56] concerns the target T56, O14-bS.
T56 chain: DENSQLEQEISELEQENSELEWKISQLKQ
The assay is described as follows: two-hybrid library CCNG1.

In the case of DENAALEAKIAALKAENAALEAKIAALKG [Core_NINI-es_EKEK], the interaction score in assay [1] worked out at 1.98.
In turn, DEIAALEAKIAALKAENAALEAKNAALKG [Core_IINN-es_EKEK] had an interaction score in assay [2] of 2.27.
DEIAALEAKIAALKAEIAALEAKNAALKG [Core_IIIN-es_EKEK] registered an interaction score in assay [3] of 2.11.
In the case of DEIAALEAKIAALKAKIAALKAKNAALKG [Core_IIIN-es_EKKK], in assay [4], the interaction score was found to be 2.06.
Regarding DEIAALEAKIAALKAKIAALKAKIAALKG [Core_IIII-es_EKKK], the interaction score in assay [5] turned out to be 1.95.
Molecule DENAALEAKIAALKAKNAALKAKIAALKG [Core_NINI-es_EKKK] registered an interaction score in [6] of 2.35.
With DENQELEKENEELKREIWELEKKIQELKR [4H1222-bH], the interaction score in assay [7] is 0.793; in assay [8], 0.714; in assay [9], -1.34; in assay [10], -0.624; in assay [11], 0.758; in assay [12], -1.2. The interaction score in assay [13] was 0.345; in assay [14], -0.362; in assay [15], 1.24; in [16], -0.0664; in assay [17], -0.605; in assay [18], -0.665. In addition, the interaction score is 0.196 in assay [19]; 0.852 in [20]; -0.384 in assay [21]; 1.19 in assay [22]; 0.693 in [23]; -2.48 in assay [24]. Besides, the interaction score in [25] was -2.96; in assay [26], 2.04; in assay [27] it was -0.0221; in [28], 1.38; in assay [29], -1.4; in assay [30], 2.16. Also, the interaction score in assay [31] is 0.361; in assay [32] it was 0.083; in [33] it was 0.426; in [34], -2.53; in [35], 1.69; in assay [36], 0.372. The values for the interaction score in assay [37], in assay [38] and in assay [39] were -0.0755, 0.0236 and 0.735, respectively.
Turning to DEIAALEAENAALEAENAALEAKIAALKG [Core_INNI-es_EEEK], the interaction score in assay [40] was 2.15.
For DKNSQLKQENSELEQEISELEWEISQLEQ [O1-bS], the interaction score is -0.794 in [41]; -1.85 in assay [42]; -0.763 in [43]; -1.37 in [44]; -0.716 in assay [45]; -1.15 in [46]. Also, the interaction score in assay [47] is -0.395; in assay [48], -0.914; in [49], -1.87; in assay [50], -0.754; in assay [51], -1.7; in assay [52] it was -1.23. Besides, the interaction score in assay [53] was -2; in [54] it was -1.5; in assay [55], 2.08; in assay [56], -0.387.

The record behind these values is article PMC10397247.
